These results are taken from patent US9441223.

For the data set, the target named is TDP-43 (Homo sapiens) (UniProt Q13148). As to conditions: reanalysis of public CLIP-seq; healthy brain; ratio rises to 2.0 in FTLD.
TDP-43 (Homo sapiens), sequence (Q13148 whole entry): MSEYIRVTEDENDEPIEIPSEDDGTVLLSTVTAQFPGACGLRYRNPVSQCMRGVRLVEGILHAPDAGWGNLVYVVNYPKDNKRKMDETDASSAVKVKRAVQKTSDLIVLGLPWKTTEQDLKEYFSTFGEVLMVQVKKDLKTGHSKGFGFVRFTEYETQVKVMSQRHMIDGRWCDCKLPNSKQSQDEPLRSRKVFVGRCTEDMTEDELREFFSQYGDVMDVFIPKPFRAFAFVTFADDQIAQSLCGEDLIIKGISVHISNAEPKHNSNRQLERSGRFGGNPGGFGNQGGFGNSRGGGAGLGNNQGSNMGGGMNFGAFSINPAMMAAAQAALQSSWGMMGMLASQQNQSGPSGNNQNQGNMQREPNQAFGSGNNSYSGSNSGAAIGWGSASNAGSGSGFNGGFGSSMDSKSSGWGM

Regarding UGUGU [UGUGU pentamer motif], the binding signal (RefGene/repeat motif enrichment ratio) was found to be 1.3.
